Experiments:
[1] = biological target: cynomolgus monkey IgE (cynomolgus monkey); assay: capture ELISA, antibody coated; Test 1, Cyno 7 serum
[2] = biological target: cynomolgus monkey IgE (cynomolgus monkey); assay: capture ELISA, antibody coated; Test 1, Cyno 2 serum
[3] = biological target: cynomolgus monkey IgE (cynomolgus monkey); assay: capture ELISA, antibody coated; Test 2, Cyno 7 serum
[4] = biological target: cynomolgus monkey IgE (cynomolgus monkey); assay: capture ELISA, antibody coated; Test 1, Cyno 5 serum
[5] = biological target: cynomolgus monkey IgE (cynomolgus monkey); assay: capture ELISA, antibody coated; Test 2, Cyno 2 serum
[6] = biological target: cynomolgus monkey IgE (cynomolgus monkey); assay: capture ELISA, antibody coated; Test 1, Cyno 1 serum
[7] = biological target: cynomolgus monkey IgE (cynomolgus monkey); assay: capture ELISA, antibody coated; Test 1, Cyno 3 serum
[8] = biological target: cynomolgus monkey IgE (cynomolgus monkey); assay: capture ELISA, antibody coated; Test 2, Cyno 1 serum
[9] = biological target: cynomolgus monkey IgE (cynomolgus monkey); assay: capture ELISA, antibody coated; Test 2, Cyno 5 serum
[10] = biological target: cynomolgus monkey IgE (cynomolgus monkey); assay: capture ELISA, antibody coated; Test 2, Cyno 3 serum

E25 (omalizumab) (antibody)
IgE concentration detected [1]: 0 ng/mL | IgE concentration detected [2]: 52 ng/mL | IgE concentration detected [3]: 0 ng/mL | IgE concentration detected [4]: 232 ng/mL | IgE concentration detected [5]: 104 ng/mL | IgE concentration detected [6]: 172 ng/mL | IgE concentration detected [7]: 166 ng/mL | IgE concentration detected [8]: 146 ng/mL | IgE concentration detected [9]: 252 ng/mL | IgE concentration detected [10]: 135 ng/mL

From patent publication US20110064726A1
